The record followed here is patent US20190300603A1 (CRESCENDO BIOLOGICS, published 2019).

This test deals with T1, recombinant human IL-17A (human, UniProt Q16552 24-155).
T1 construct: also called Peprotech cat# AF-200-17
T1 sequence: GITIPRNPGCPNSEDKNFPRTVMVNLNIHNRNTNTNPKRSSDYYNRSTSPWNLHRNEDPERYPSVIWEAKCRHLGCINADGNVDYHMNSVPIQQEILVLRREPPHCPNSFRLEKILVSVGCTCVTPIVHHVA
Kind of test: ELISA. On the technique in general: ELISA stands for enzyme-linked immunosorbent assay.

B1: VH domain as identified in SEQ ID NO: 1 (optimised anti-IL-17A single VH domain antibody) (VHH)
VHH: EVQLVESGGGLVQPGGSLRLSCAASGFTFSSYSMYWVRQAPGKGLEWVAEIKQDGSVQYYVSDVKGRFTISRDNAKNSLYLQMNSLRAEDTAVYYCAKGEILPLYFDYWGQGTLVTVSS
notes: Human VH single domain antibody (Humabody VH) without a light chain, from Tg/TKO mice and then optimised
On to B1, for which the binding result is “binds”.
